The text below walks through data of patent US20210079074A1 (Alector, published 2021).

Assay [1] addresses T1, recombinant MS4A4A soluble polypeptide JS1.
T1 construct: also called JS1.His; loop grafted antigen
The assay is described as follows: ELISA, 1 ug/ml antibody. As for the experimental part: Anti-MS4A4A antibodies of the present disclosure were tested for their ability to bind to the different recombinant MS4A4A soluble polypeptides, as described in Example 2, as follows. Nucleic acid encoding the VH and VL domains of humanized anti-MS4A4A antibodies of the present disclosure were cloned into pcDNA3.4 vector which contains either the human IgG1 heavy chain constant domain or human kappa constant domain. The humanized anti-MS4A4A antibodies were expressed in Expi293 cells and were purified by Mab select antibody purification resin (GE Healthcare Life Science, cat#17519902) following the manufacture's protocol. ELISA was performed to measure binding of anti-MS4A4A antibodies of the present disclosure the recombinant MS4A4A soluble polypeptides. 1 μg/ml biotinylated antigens were preincubated on the streptavidin-coated ELISA plates (Thermo Scientific, cat#PI15120) for 1 hour. Plates were washed 3 times, followed by the addition of antibodies (1 μg/ml, 0.33 μg/ml, and 0.11 μg/ml antibodies. Plates were incubated at room temperature with shaking for 1 hr, washed 3 times, then 1/2500 dilution of HRP conjugates goat anti human kappa antibodies added (SigmaAldrich cat#. A7164-1ML).

In a further assay the target is human MS4A4A (human, UniProt Q96JQ5 1-239). The assay is described as follows: FACS, U937-huMS4A4A, 5 ug/ml. As to the method: Anti-MS4A4A antibodies tested were either mouse IgGs purified from hybridoma supernatant or human IgG1 Fc chimeras produced recombinantly in Expi293 cells. Affinity binding to cells was determined as follows. Briefly, cells were harvested, washed, and labeled with Aqua Live/Dead for viability discrimination. After a wash with PBS, 2×10\hat{ }4 cells were aliquoted per well in 96-well U-bottom plates and incubated with 50 μL of purified anti-MS4A4A antibody at various concentrations (3× dilutions starting at 10 μg/mL) in FACS buffer (PBS+2% FBS+1 mM EDTA). After this primary incubation, the supernatant was removed via centrifugation, washed 2× with 150 μL of ice-cold FACS buffer, and incubated with the appropriate secondary antibody on ice for 15 minutes. Following the secondary antibody incubation, the cells were again washed 2× with ice-cold FACS buffer and resuspended in a final volume of 200 μL of FACS buffer. Flow cytometry analysis was performed on a FACSCanto system (BD Biosciences). Binding data was expressed as Median Fluorescent Intensity (MFI).
These experiments were performed using anti-MS4A4A antibodies at a concentration of 5 μg/ml and were assayed for cell binding by flow cytometry.
In general terms: Flow cytometry measures light scatter and fluorescence of single cells or particles in a stream.

In assay [2] the target is T2, FcγRIIa receptor (H131 variant) (UniProt P12318 34-317, limits assumed).
T2 sequence (looked up): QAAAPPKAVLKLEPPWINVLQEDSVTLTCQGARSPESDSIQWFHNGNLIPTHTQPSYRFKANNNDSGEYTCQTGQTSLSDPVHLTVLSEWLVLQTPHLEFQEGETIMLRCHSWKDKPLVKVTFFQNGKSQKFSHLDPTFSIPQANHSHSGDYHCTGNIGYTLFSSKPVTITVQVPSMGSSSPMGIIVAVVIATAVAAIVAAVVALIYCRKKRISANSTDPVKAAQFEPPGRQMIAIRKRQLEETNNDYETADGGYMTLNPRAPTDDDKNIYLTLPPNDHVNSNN
The assay is described as follows: cell-based or functional assay.

The target of assay [3] is FcγRIIIa receptor (V158 variant) (UniProt P08637 17-254). In words: cell-based or functional assay.

Substitutions are numbered along the chain they refer to. Names and notes keep the numbering of the source.

Sequence of FcγRIIIa receptor (V158 variant) (P08637 other isoform, or with tags, fused parts or gaps mutant limits assumed): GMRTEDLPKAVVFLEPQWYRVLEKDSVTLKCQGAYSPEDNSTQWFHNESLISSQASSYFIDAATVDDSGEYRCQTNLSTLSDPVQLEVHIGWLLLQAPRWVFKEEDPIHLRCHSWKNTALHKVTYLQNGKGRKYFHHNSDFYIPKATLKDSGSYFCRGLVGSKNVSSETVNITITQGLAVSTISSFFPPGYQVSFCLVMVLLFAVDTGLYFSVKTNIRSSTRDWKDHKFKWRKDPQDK

B1: anti-MS4A4A antibody 4A-333 (antibody, human IgG1, V domains shown)
VH: QVQLVQSGSELKKPGASVKVSCKASGYIFTSYGLSWVRQAPGQGLEWMGWINTYSGVPTYAQGFTGRFVFSLDTSVSTTYLQISSLKAEDTAVYYCARSLVDYWGQGTLVTVSS
VL: DVVMTQSPLSLPVTLGQPASISCKSSQSLLYSDGKTYLSWFQQRPGQSPRRLIYLVSKLDSGVPDRFSGSGSGTDFTLKISRVEAEDVGVYYCWQGIDFHQTFGGGTKVEIK
notes: humanized 4A-21; human IgG1/kappa
As to B1, in assay [1], the OD450 was determined as 1.79. The molecule further displayed an MFI in the assay with human MS4A4A of 350.

B2: anti-MS4A4A antibody 4A-346 (antibody, human IgG1, V domains shown)
VH: QVQLVQSGAEVKKPGASVKVSCKASGYIFTSYGLSWVRQAPGQGLEWMGWINTYSGVPTYAQKFQGRVTMTRDTSTSTVYMELSSLRSEDTAVYYCARSLVDYWGQGTLVTVSS
VL: B1 VL with V2I, S7T, P12S, L15P, F41Y, Q42L, R44K, S48P, R50Q, R51L
notes: as for B1
For the molecule B2, the OD450 in assay [1] was found to be 0.148. In the assay with human MS4A4A, this molecule returned an MFI of 56.1.

B3: anti-MS4A4A antibody 4A-341 (antibody, human IgG1, V domains shown)
VH: B2 VH with G44R, A61S, M70I, T76A, V79A
VL: B1 VL with S7T, P12S, L15P, F41Y, Q42L, R44K, S48P, R50Q, R51L
notes: as for B1
B3: the OD450 in assay [1] stood at 0.162.

B4: anti-MS4A4A antibody 4A-339 (antibody, human IgG1, V domains shown)
VH: B1 VH
VL: B1 VL with S7T, L11S, F41L, S48P, S72A
notes: as for B1
Take B4: in assay [1], the OD450 was 1.76. This molecule also registered an MFI with human MS4A4A of 284.

B5: anti-MS4A4A antibody 4A-347 (antibody, human IgG1, V domains shown)
VH: B2 VH with G44R, A61S, M70I, R72L, T76A, V79T
VL: B1 VL with V2I, S7T, P12S, L15P, F41Y, Q42L, R44K, S48P, R50Q, R51L
notes: as for B1
Turning to B5, the OD450 in assay [1] was 0.141.

B6: anti-MS4A4A antibody 4A-336 (antibody, human IgG1, V domains shown)
VH: B1 VH with T79A
VL: B1 VL with S7T, L11S, F41L, S48P, S72A
notes: as for B1
Consider B6, for which the OD450 in assay [1] was 1.7. The MFI with human MS4A4A worked out at 309.

B7: anti-MS4A4A antibody 4A-342 (antibody, human IgG1, V domains shown)
VH: B2 VH with V2I
VL: B1 VL with S7T, P12S, L15P, F41Y, Q42L, R44K, S48P, R50Q
notes: as for B1
Consider B7, for which, in assay [1], the OD450 was 1.09. This molecule also had an MFI in the assay with human MS4A4A of 538.

B8: anti-MS4A4A antibody 4A-343 (antibody, human IgG1, V domains shown)
VH: B2 VH with V2I, R72L, V79T
VL: B1 VL with S7T, P12S, L15P, F41Y, Q42L, R44K, S48P, R50Q
notes: as for B1
On to B8, for which the OD450 in assay [1] stood at 1.37. In the assay with human MS4A4A, this molecule returned an MFI of 513.

B9: anti-MS4A4A antibody 4A-335 (antibody, human IgG1, V domains shown)
VH: B1 VH with T79A
VL: B1 VL with S7T, L11S, F41L, S48P, R51L, S72A
notes: as for B1
As for B9, the OD450 in assay [1] amounted to 1.66. In addition, the MFI with human MS4A4A stood at 286.

B10: anti-MS4A4A antibody 4A-340 (antibody, human IgG1, V domains shown)
VH: B2 VH with G44R, A61S, M70I, R72L, T76A, V79T
VL: B1 VL with S7T, P12S, L15P, F41Y, Q42L, R44K, S48P, R50Q, R51L
notes: as for B1
For B10, in assay [1], the OD450 came out at 0.146.

B11: anti-MS4A4A antibody 4A-338 (antibody, human IgG1, V domains shown)
VH: B1 VH
VL: B1 VL with S7T, L11S, F41L, S48P, R51L, S72A
notes: as for B1
On to B11, for which the OD450 in assay [1] was found to be 1.65. In the assay with human MS4A4A, this molecule gave an MFI of 222.

B12: anti-MS4A4A antibody 4A-344 (antibody, human IgG1, V domains shown)
VH: B2 VH
VL: B1 VL with S7T, P12S, L15P, F41Y, Q42L, R44K, S48P, R50Q
notes: as for B1
For B12, the OD450 in assay [1] was determined as 0.719. Besides, in the assay with human MS4A4A, the MFI worked out at 427.

B13: anti-MS4A4A antibody 4A-334 (antibody, human IgG1, V domains shown)
VH: B1 VH with T79A
VL: B1 VL with V2I, S7T, L11S, F41L, S48P, R51L, S72A
notes: as for B1
For the molecule B13, the OD450 in assay [1] turned out to be 1.53. The molecule also registered an MFI with human MS4A4A of 296.

B14: anti-MS4A4A antibody 4A-337 (antibody, human IgG1, V domains shown)
VH: B1 VH
VL: B1 VL with V2I, S7T, L11S, F41L, S48P, R51L, S72A
notes: as for B1
In the case of B14, the OD450 in assay [1] was determined as 1.33. The MFI in the assay with human MS4A4A amounted to 218.

B15: anti-MS4A4A antibody 4A-345 (antibody, human IgG1, V domains shown)
VH: B2 VH with G44R, A61S, M70I, T76A, V79A
VL: B1 VL with V2I, S7T, P12S, L15P, F41Y, Q42L, R44K, S48P, R50Q, R51L
notes: as for B1
Take B15: the OD450 in assay [1] is 0.132.

B16: anti-MS4A4A antibody 4A-305 (antibody, human IgG1, V domains shown)
VH: EVQLVQSGAEVKKPGATVKISCKVSGYTFTNYWMQWVQQAPGKGLEWMGATHPGHGDTRYAEKFQGRVTITADTSTDTAYMELSSLRSEDTAVYYCAREEVYYGFRSYWYFDVWGRGTLVTVSS
VL: DIVMTQSPDSLAVSLGERATINCRASESVDNYGVSFMNWYQQKPGQPPKLLIYGASNQGSGVPDRFSGSGSGTDFTLTISSLQAEDVAVYYCQQSKEVPPTFGGGTKVEIK
notes: human IgG1/kappa
For B16, in assay [1], the OD450 was 0.116.

B17: anti-MS4A4A antibody 4A-303 (antibody, human IgG1, V domains shown)
VH: EVQLVQSGAEVKKPGESLKISCKGSGYTFTNYWMQWVRQMPGKGLEWMGATHPGHGDTRYSPSFQGQVTISADKSISTAYLQWSSLKASDTAMYYCAREEVYYGFRSYWYFDVWGRGTLVTVSS
VL: B16 VL
notes: human IgG1/kappa
Turning to B17, the OD450 in assay [1] was 0.121.

B18: anti-MS4A4A antibody 4A-310 (antibody, human IgG1, V domains shown)
VH: B17 VH with I76S
VL: B16 VL
notes: human IgG1/kappa
As for B18, the OD450 in assay [1] was 0.118.

B19: anti-MS4A4A antibody 4A-311 (antibody, human IgG1, V domains shown)
VH: B16 VH with T74K, D77S
VL: B16 VL
notes: human IgG1/kappa
As for B19, the OD450 in assay [1] is 0.122.

B20: anti-MS4A4A antibody 4A-307 (antibody, human IgG1, V domains shown)
VH: QVQLVQSGAEVKKPGASVKVSCKASGYTFTNYWMQWVRQAPGQGLEWMGATHPGHGDTRYAQKFQGRVTMTADKSTSTVYMELSSLRSEDTAVYYCAREEVYYGFRSYWYFDVWGRGTLVTVSS
VL: B16 VL
notes: human IgG1/kappa
Consider B20, for which the OD450 in assay [1] was determined as 0.126.

B21: anti-MS4A4A antibody 4A-306 (antibody, human IgG1, V domains shown)
VH: B20 VH with A72R, K74T
VL: DIQMTQSPSSLSASVGDRVTITCRASESVDNYGVSFMNWYQQKPGKAPKLLIYGASNQGSGVPSRFSGSGSGTDFTLTISSLQPEDFATYYCQQSKEVPPTFGGGTKVEIK
notes: human IgG1/kappa
B21: the OD450 in assay [1] turned out to be 0.12.

B22: anti-MS4A4A antibody 4A-313 K322A huIgG1 (antibody)
heavy: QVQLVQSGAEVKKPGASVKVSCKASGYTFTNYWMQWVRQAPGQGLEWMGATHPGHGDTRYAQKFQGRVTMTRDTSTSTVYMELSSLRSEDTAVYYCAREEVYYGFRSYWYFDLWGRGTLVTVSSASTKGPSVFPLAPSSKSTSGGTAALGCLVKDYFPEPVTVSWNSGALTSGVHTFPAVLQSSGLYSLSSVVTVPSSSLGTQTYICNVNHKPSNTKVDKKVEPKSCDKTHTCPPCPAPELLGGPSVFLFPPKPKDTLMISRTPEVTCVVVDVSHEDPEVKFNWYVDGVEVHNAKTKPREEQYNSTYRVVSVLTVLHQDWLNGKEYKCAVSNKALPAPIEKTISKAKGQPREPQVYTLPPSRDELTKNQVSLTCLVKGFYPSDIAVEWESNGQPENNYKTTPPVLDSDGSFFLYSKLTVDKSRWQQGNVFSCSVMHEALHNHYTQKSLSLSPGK
light: EIVLTQSPATLSLSPGERATLSCRASESVDNYGVSRMNWYQQKPGQAPRLLIYGASNQGSGIPARFSGSGSGTDFTLTISSLEPEDFAVYYCQQSKEVPPTFGGGTKVEIKRTVAAPSVFIFPPSDEQLKSGTASVVCLLNNFYPREAKVQWKVDNALQSGNSQESVTEQDSKDSTYSLSSTLTLSKADYEKHKVYACEVTHQGLSSPVTKSFNRGEC
In the case of B22, in assay [2], the “luminescence, ADCP reporter, 3.048316 ng/mL” value amounted to 51; the “luminescence, ADCP reporter, 9.144947 ng/mL” value came out at 46; the “luminescence, ADCP reporter, 27.43484 ng/mL” value was found to be 44; the “luminescence, ADCP reporter, 82.30453 ng/mL” value was 66. In assay [2], the “luminescence, ADCP reporter, 246.9136 ng/mL” value was 60; the “luminescence, ADCP reporter, 740.7407 ng/mL” value was 54; the “luminescence, ADCP reporter, 2,222.222 ng/mL” value is 67; the “luminescence, ADCP reporter, 6,666.667 ng/mL” value was 242. Besides, the “luminescence, ADCP reporter, 20,000 ng/mL” value in assay [2] was 154. Also, in assay [3], the “luminescence, ADCC reporter, 3.048316 ng/mL” value was found to be 338; the “luminescence, ADCC reporter, 9.144947 ng/mL” value was 338; the “luminescence, ADCC reporter, 27.43484 ng/mL” value is 341; the “luminescence, ADCC reporter, 82.30453 ng/mL” value is 426. Moreover, in assay [3], the “luminescence, ADCC reporter, 246.9136 ng/mL” value stood at 508; the “luminescence, ADCC reporter, 740.7407 ng/mL” value amounted to 623; the “luminescence, ADCC reporter, 2,222.222 ng/mL” value was determined as 1020; the “luminescence, ADCC reporter, 6,666.667 ng/mL” value amounted to 1180. For the same molecule, the “luminescence, ADCC reporter, 20,000 ng/mL” value in assay [3] was 1220.
